{"source": "the supplement of paper PMC11316812", "key": {"[1]": {"system": "MCF7", "test": "percentage of EdU-negative (G0-arrested) nuclei per well, 72 h; higher = more G0 arrest", "conditions": "reference: sequence is the full UniProt precursor, the tested protein was the secreted form or ectodomain"}, "[2]": {"system": "hTERT-HMEC", "test": "percentage of EdU-negative (G0-arrested) nuclei per well, 72 h; higher = more G0 arrest", "conditions": "reference: sequence is the full UniProt precursor, the tested protein was the secreted form or ectodomain"}, "[3]": {"conditions": "protein concentration 0.0225 µM"}, "[4]": {"conditions": "protein concentration 0.0114286 µM"}, "[5]": {"conditions": "protein concentration 0.114286 µM"}, "[6]": {"conditions": "protein concentration 0.0357143 µM"}, "[7]": {"conditions": "protein concentration 0.357143 µM"}, "[8]": {"conditions": "protein concentration 0.0305714 µM"}, "[9]": {"conditions": "protein concentration 0.305714 µM"}}, "note": "± gives the standard deviation of the averaged measurements.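 Note: secreted proteins added to cultured cells, EdU pulse at the end, nuclei found by Hoechst imaging, EdU status from nuclear versus surrounding ring intensity ratio, PBS as neutral control.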", "data": [{"substance": "MSPHPTALLGLVLCLAQTIHTQEEDLPRPSISAEPGTVIPLGSHVTFVCRGPVGVQTFRLERDSRSTYNDTEDVSQASPSESEARFRIDSVREGNAGLYRCIYYKPPKWSEQSDYLELLVKESSGGPDSPDTEPGSSAGPTQRPSDNSHNEHAPASQGLKAEHLYILIGVSVVFLFCLLLLVLFCLHRQNQIKQGPPRSKDEEQKPQQRPDLAVDVLERTADKATVNGLPEKDRETDTSALAAGSSQEVTYAQLDHWALTQRTARAVSPQSTKPMAESITYAAVARH [Q6GTX8]", "values": [{"measurement": "percentage of EdU-negative", "setting": "[1]; [3]", "result": "23.2 ± 1.6", "unit": "%"}, {"measurement": "percentage of EdU-negative", "setting": "[1]; protein concentration 0.225 µM", "result": "24.29 ± 0.027", "unit": "%"}, {"measurement": "percentage of EdU-negative", "setting": "[2]; [3]", "result": "5.38 ± 0.85", "unit": "%"}, {"measurement": "percentage of EdU-negative", "setting": "[2]; protein concentration 0.225 µM", "result": "5.62 ± 0.45", "unit": "%"}]}, {"substance": "MVLAQGLLSMALLALCWERSLAGAEETIPLQTLRCYNDYTSHITCRWADTQDAQRLVNVTLIRRVNEDLLEPVSCDLSDDMPWSACPHPRCVPRRCVIPCQSFVVTDVDYFSFQPDRPLGTRLTVTLTQHVQPPEPRDLQISTDQDHFLLTWSVALGSPQSHWLSPGDLEFEVVYKRLQDSWEDAAILLSNTSQATLGPEHLMPSSTYVARVRTRLAPGSRLSGRPSKWSPEVCWDSQPGDEAQPQNLECFFDGAAVLSCSWEVRKEVASSVSFGLFYKPSPDAGEEECSPVLREGLGSLHTRHHCQIPVPDPATHGQYIVSVQPRRAEKHIKSSVNIQMAPPSLNVTKDGDSYSLRWETMKMRYEHIDHTFEIQYRKDTATWKDSKTETLQNAHSMALPALEPSTRYWARVRVRTSRTGYNGIWSEWSEARSWDTESVLPMWVLALIVIFLTIAVLLALRFCGIYGYRLRRKWEEKIPNPSKSHLFQNGSAELWPPGSMSAFTSGSPPHQGPWGSRFPELEGVFPVGFGDSEVSPLTIEDPKHVCDPPSGPDTTPAASDLPTEQPPSPQPGPPAASHTPEKQASSFDFNGPYLGPPHSRSLPDILGQPEPPQEGGSQKSPPPGSLEYLCLPAGGQVQLVPLAQAMGPGQAVEVERRPSQGAAGSPSLESGGGPAPPALGPRVGGQDQKDSPVAIPMSSGDTEDPGVASGYVSSADLVFTPNSGASSVSLVPSLGLPSDQTPSLCPGLASGPPGAPGPVKSGFEGYVELPPIEGRSPRSPRNNPVPPEAKSPVLNPGERPADVSPTSPQPEGLLVLQQVGDYCFLPGLGPGPLSLRSKPSSPGPGPEIKNLDQAFQVKKPPGQAVPQVPVIQLFKALKQQDYLSLPPWEVNKPGEVC", "values": [{"measurement": "percentage of EdU-negative", "setting": "[1]; [3]", "result": "23.9 ± 0.89", "unit": "%"}, {"measurement": "percentage of EdU-negative", "setting": "[1]; protein concentration 0.225 µM", "result": "26.4 ± 2.5", "unit": "%"}, {"measurement": "percentage of EdU-negative", "setting": "[2]; [3]", "result": "4.92 ± 0.4", "unit": "%"}, {"measurement": "percentage of EdU-negative", "setting": "[2]; protein concentration 0.225 µM", "result": "8.11 ± 1.6", "unit": "%"}]}, {"substance": "H7BXV5", "values": [{"measurement": "percentage of EdU-negative", "setting": "[1]; [4]", "result": "23 ± 0.76", "unit": "%"}, {"measurement": "percentage of EdU-negative", "setting": "[1]; [5]", "result": "23.83 ± 0.21", "unit": "%"}, {"measurement": "percentage of EdU-negative", "setting": "[2]; [4]", "result": "4.71 ± 0.48", "unit": "%"}, {"measurement": "percentage of EdU-negative", "setting": "[2]; [5]", "result": "7.28 ± 0.91", "unit": "%"}]}, {"substance": "MNRFLLLMSLYLLGSARGTSSQPNELSGSIDHQTSVQQLPGEFFSLENPSDAEALYETSSGLNTLSEHGSSEHGSSKHTVAEHTSGEHAESEHASGEPAATEHAEGEHTVGEQPSGEQPSGEHLSGEQPLSELESGEQPSDEQPSGEHGSGEQPSGEQASGEQPSGEHASGEQASGAPISSTSTGTILNCYTCAYMNDQGKCLRGEGTCITQNSQQCMLKKIFEGGKLQFMVQGCENMCPSMNLFSHGTRMQIICCRNQSFCNKI", "values": [{"measurement": "percentage of EdU-negative", "setting": "[1]; [6]", "result": "24.76 ± 0.1", "unit": "%"}, {"measurement": "percentage of EdU-negative", "setting": "[1]; [7]", "result": "27.1 ± 1.2", "unit": "%"}, {"measurement": "percentage of EdU-negative", "setting": "[2]; [6]", "result": "6.06 ± 0.83", "unit": "%"}, {"measurement": "percentage of EdU-negative", "setting": "[2]; [7]", "result": "9.78 ± 0.68", "unit": "%"}]}, {"substance": "MSDSKEPRLQQLGLLEEEQLRGLGFRQTRGYKSLAGCLGHGPLVLQLLSFTLLAGLLVQVSKVPSSISQEQSRQDAIYQNLTQLKAAVGELSEKSKLQEIYQELTQLKAAVGELPEKSKLQEIYQELTRLKAAVGELPEKSKLQEIYQELTWLKAAVGELPEKSKMQEIYQELTRLKAAVGELPEKSKQQEIYQELTRLKAAVGELPEKSKQQEIYQELTRLKAAVGELPEKSKQQEIYQELTQLKAAVERLCHPCPWEWTFFQGNCYFMSNSQRNWHDSITACKEVGAQLVVIKSAEEQNFLQLQSSRSNRFTWMGLSDLNQEGTWQWVDGSPLLPSFKQYWNRGEPNNVGEEDCAEFSGNGWNDDKCNLAKFWICKKSAASCSRDEEQFLSPAPATPNPPPA [Q9NNX6]", "values": [{"measurement": "percentage of EdU-negative", "setting": "[1]; [8]", "result": "26.2 ± 1", "unit": "%"}, {"measurement": "percentage of EdU-negative", "setting": "[1]; [9]", "result": "26.5 ± 0.49", "unit": "%"}, {"measurement": "percentage of EdU-negative", "setting": "[2]; [8]", "result": "4.977 ± 0.027", "unit": "%"}, {"measurement": "percentage of EdU-negative", "setting": "[2]; [9]", "result": "17 ± 4.1", "unit": "%"}]}, {"substance": "MQWLRVRESPGEATGHRVTMGTAALGPVWAALLLFLLMCEIPMVELTFDRAVASGCQRCCDSEDPLDPAHVSSASSSGRPHALPEIRPYINITILKGDKGDPGPMGLPGYMGREGPQGEPGPQGSKGDKGEMGSPGAPCQKRFFAFSVGRKTALHSGEDFQTLLFERVFVNLDGCFDMATGQFAAPLRGIYFFSLNVHSWNYKETYVHIMHNQKEAVILYAQPSERSIMQSQSVMLDLAYGDRVWVRLFKRQRENAIYSNDFDTYITFSGHLIKAEDD [Q9BXI9]", "values": [{"measurement": "percentage of EdU-negative", "setting": "[1]; [3]", "result": "26.9 ± 1.5", "unit": "%"}, {"measurement": "percentage of EdU-negative", "setting": "[1]; protein concentration 0.225 µM", "result": "29.5 ± 1.2", "unit": "%"}, {"measurement": "percentage of EdU-negative", "setting": "[2]; [3]", "result": "4.57 ± 0.33", "unit": "%"}, {"measurement": "percentage of EdU-negative", "setting": "[2]; protein concentration 0.225 µM", "result": "4.82 ± 1.2", "unit": "%"}]}]}
